Literature values in paper PMC3292877.

Target: ERK2 (Rattus norvegicus) (UniProt P63086)

Kd: 7 nM
Substance: ERK2 (from UniProt P63086)
